Results: patent US20100234294A1 (INSTITUT NATIONAL DE LA SANTE ET DE LA RECHERCHE MEDICALE …, published 2010)

Legend:
Assay in all cases: co-expression in COS cells
FcERIγ = biological target: T1, FcERIγ (UniProt P30273 19-86)
T1 sequence (looked up): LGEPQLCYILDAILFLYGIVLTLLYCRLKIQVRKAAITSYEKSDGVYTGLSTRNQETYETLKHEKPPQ

DAP10 = biological target: T2, DAP10 (UniProt Q9UBK5 19-93)
T2 sequence (looked up): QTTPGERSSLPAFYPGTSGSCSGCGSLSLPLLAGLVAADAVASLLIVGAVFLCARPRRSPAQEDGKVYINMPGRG

DAP12 = DAP12 (UniProt O43914 22-113)
ζ = biological target: T3, ζ (UniProt P20963 22-164)
T3 construct: also called CD3ζ

Measured: binding result

T3 sequence (P20963 22-164 limits assumed): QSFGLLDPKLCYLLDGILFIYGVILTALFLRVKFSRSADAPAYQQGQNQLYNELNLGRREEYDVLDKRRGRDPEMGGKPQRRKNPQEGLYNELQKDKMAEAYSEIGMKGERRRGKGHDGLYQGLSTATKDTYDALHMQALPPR
Chain of DAP12 (O43914 22-113 limits assumed): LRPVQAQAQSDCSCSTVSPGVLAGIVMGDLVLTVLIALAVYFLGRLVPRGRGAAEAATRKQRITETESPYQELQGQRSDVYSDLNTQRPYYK

B1: CD160-TM, Flag-tagged, expressed by transfected cells (receptor)
chain: GCINITSSASQEGTRLNLICTVWHKKEEAEGFVVFLCKDRSGDCSPETSLKQLRLKRDPGIDGVGEISSQLMFTISQVTPLHSGTYQCCARSQKSGIRLQGHFFSILFTETGNYTVTGLKQRQHLEFSHNEGTLSSGFLQEKVWVMLVTSLVALQGMSKRAVSTPSNEGAIIFLPPWLFSRRRRLERMSRGREKCYSSPGYPQESSNQFH
notes: Expressed in Jurkat cells from pEF6; Also used here for the co-expression in COS cells, where the construct is not described; also called CD160-TM transfectants; CD160-TM-transfected cells; not shown: Flag tag coded by the reverse oligonucleotide (C-terminal)
no binding: all assays above
